# Measurements: patent US20200262877A1, “ION CHANNEL-BINDING PEPTIDES AND METHODS OF USE THEREOF” (priority 2017, published 2020)
# Key:
# 5HT3a = target: T1, 5HT3a (Homo sapiens, UniProt P46098); experiment: Ion channel panel (IonWorks Barracuda): 5HT3a; format: cell-based
# T1 construct: host or cells: HEK293 or CHO
# T1 sequence (P46098 whole entry, looked up): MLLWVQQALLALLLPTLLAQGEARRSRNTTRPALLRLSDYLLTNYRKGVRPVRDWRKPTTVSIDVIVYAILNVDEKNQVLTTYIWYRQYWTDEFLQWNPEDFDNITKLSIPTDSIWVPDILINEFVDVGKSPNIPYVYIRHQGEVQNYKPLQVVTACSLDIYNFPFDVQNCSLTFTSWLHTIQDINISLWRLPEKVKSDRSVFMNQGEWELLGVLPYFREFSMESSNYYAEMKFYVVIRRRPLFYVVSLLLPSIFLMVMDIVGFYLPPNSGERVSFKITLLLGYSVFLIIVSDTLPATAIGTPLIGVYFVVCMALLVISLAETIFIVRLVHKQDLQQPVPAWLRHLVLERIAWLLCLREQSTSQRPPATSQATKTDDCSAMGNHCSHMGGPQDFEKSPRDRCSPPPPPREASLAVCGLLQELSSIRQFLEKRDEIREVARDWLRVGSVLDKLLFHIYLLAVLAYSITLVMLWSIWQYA
# How it was run: (§1)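 Peptides were tested in duplicate at final 20 μM and 200 nM, with concentration set by amino acid analysis, in HEPES-buffered saline. They were applied for at least 5 min to HEK293 or CHO cells transfected with each channel. Currents were expressed as % inhibition, 1-(Ipeptide/Icontrol)×100, or % activation, Ipeptide/Icontrol×100, against a channel-matched reference compound.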
# α3β4 = target: T2, α3β4 (Homo sapiens, UniProt P30926+P32297); experiment: Ion channel panel (IonWorks Barracuda): α3β4; format: cell-based; settings: 100% = no change, <100% = inhibition
# T2 construct: host or cells: HEK293 or CHO
# How it was run: as §1
# α4β2 = target: T3, α4β2 (Homo sapiens, UniProt P17787+P43681); experiment: Ion channel panel (IonWorks Barracuda): α4β2; format: cell-based; settings: 100% = no change, <100% = inhibition
# T3 construct: host or cells: HEK293 or CHO
# How it was run: as §1
# Cav2.1 = target: T4, Cav2.1 (Homo sapiens, UniProt O00555); experiment: cell-based; settings: 100% = no change, <100% = inhibition
# T4 construct: host or cells: HEK293 or CHO
# How it was run: as §1
# Cav2.2 = target: T5, Cav2.2 (Homo sapiens, UniProt Q00975); experiment: cell-based; settings: 100% = no change, <100% = inhibition
# T5 construct: host or cells: HEK293 or CHO
# How it was run: as §1
# Kv2.1 = target: T6, Kv2.1 (Homo sapiens, UniProt Q14721); experiment: cell-based; settings: 100% = no change, <100% = inhibition
# T6 construct: host or cells: HEK293 or CHO
# How it was run: as §1
# GABA = experiment: Ion channel panel (IonWorks Barracuda): GABA; format: cell-based; settings: 100% = no change, <100% = inhibition
# How it was run: as §1
# Nav1.5 = Nav1.5 (Homo sapiens, UniProt Q14524); experiment: in vitro; settings: 100% = no change; for Activity of Nav1.5 with peptide, expressed as a percentage of the reference compound: peptide at 0.2 μM; for Activity of Nav1.5 with peptide (percentage of the reference compound): peptide at 20 μM
# How it was run: as §1
# hERG = hERG (Homo sapiens, UniProt Q12809); experiment: in vitro; settings: 100% = no change, <100% = inhibition
# How it was run: as §1
# Kir2.1 = target: T7, Kir2.1 (Homo sapiens, UniProt P63252); experiment: Ion channel panel (IonWorks Barracuda): Kir2.1; format: cell-based; settings: 100% = no change, <100% = inhibition
# T7 construct: host or cells: HEK293 or CHO
# How it was run: as §1
# Kv1.1 = target: T8, Kv1.1 (Homo sapiens, UniProt Q09470); experiment: cell-based; format: cell-based; settings: 100% = no change, <100% = inhibition
# T8 construct: host or cells: HEK293 or CHO
# How it was run: as §1
# Kv1.2 = target: T9, Kv1.2 (Homo sapiens, UniProt P16389); experiment: cell-based; format: cell-based; settings: 100% = no change, <100% = inhibition
# T9 construct: host or cells: HEK293 or CHO
# How it was run: as §1
# Kv1.3 = target: T10, Kv1.3 (Homo sapiens, UniProt P22001); experiment: cell-based; format: cell-based; settings: 100% = no change, <100% = inhibition
# T10 construct: host or cells: HEK293 or CHO
# How it was run: as §1
# Nav1.7 = target: T11, Nav1.7 (Homo sapiens, UniProt Q15858); experiment: cell-based; format: cell-based; settings: 100% = no change; for Activity of Nav1.7 with peptide, expressed as a percentage of the reference compound: peptide at 0.2 μM; for Activity of Nav1.7 with peptide (percentage of the reference compound): peptide at 20 μM
# T11 construct: host or cells: HEK293 or CHO
# NR2A = target: T12, NR2A (Homo sapiens, UniProt Q12879); experiment: Ion channel panel (IonWorks Barracuda): NR2A; format: cell-based; settings: 100% = no change, <100% = inhibition
# T12 construct: host or cells: HEK293 or CHO
# How it was run: as §1
# NR2B = target: T13, NR2B (Homo sapiens, UniProt Q13224); experiment: Ion channel panel (IonWorks Barracuda): NR2B; format: cell-based; settings: 100% = no change, <100% = inhibition
# T13 construct: host or cells: HEK293 or CHO
# How it was run: as §1
# TRPA1 = target: T14, TRPA1 (Homo sapiens, UniProt O75762); experiment: Ion channel panel (IonWorks Barracuda): TRPA1; format: cell-based; settings: 100% = no change, <100% = inhibition
# T14 construct: host or cells: HEK293 or CHO
# How it was run: as §1
# TRPV1 = target: T15, TRPV1 (Homo sapiens, UniProt Q8NER1); experiment: Ion channel panel (IonWorks Barracuda): TRPV1; format: cell-based; settings: 100% = no change, <100% = inhibition
# T15 construct: host or cells: HEK293 or CHO
# How it was run: as §1
# [1] = first of two Nav1.5 columns (probably TP1)
# [2] = second of two Nav1.5 columns (probably TP2)
# [3] = first of two Nav1.7 columns (probably TP1)
# [4] = second of two Nav1.7 columns (probably TP2)
# Sequence of Nav1.5 (Q14524 whole entry): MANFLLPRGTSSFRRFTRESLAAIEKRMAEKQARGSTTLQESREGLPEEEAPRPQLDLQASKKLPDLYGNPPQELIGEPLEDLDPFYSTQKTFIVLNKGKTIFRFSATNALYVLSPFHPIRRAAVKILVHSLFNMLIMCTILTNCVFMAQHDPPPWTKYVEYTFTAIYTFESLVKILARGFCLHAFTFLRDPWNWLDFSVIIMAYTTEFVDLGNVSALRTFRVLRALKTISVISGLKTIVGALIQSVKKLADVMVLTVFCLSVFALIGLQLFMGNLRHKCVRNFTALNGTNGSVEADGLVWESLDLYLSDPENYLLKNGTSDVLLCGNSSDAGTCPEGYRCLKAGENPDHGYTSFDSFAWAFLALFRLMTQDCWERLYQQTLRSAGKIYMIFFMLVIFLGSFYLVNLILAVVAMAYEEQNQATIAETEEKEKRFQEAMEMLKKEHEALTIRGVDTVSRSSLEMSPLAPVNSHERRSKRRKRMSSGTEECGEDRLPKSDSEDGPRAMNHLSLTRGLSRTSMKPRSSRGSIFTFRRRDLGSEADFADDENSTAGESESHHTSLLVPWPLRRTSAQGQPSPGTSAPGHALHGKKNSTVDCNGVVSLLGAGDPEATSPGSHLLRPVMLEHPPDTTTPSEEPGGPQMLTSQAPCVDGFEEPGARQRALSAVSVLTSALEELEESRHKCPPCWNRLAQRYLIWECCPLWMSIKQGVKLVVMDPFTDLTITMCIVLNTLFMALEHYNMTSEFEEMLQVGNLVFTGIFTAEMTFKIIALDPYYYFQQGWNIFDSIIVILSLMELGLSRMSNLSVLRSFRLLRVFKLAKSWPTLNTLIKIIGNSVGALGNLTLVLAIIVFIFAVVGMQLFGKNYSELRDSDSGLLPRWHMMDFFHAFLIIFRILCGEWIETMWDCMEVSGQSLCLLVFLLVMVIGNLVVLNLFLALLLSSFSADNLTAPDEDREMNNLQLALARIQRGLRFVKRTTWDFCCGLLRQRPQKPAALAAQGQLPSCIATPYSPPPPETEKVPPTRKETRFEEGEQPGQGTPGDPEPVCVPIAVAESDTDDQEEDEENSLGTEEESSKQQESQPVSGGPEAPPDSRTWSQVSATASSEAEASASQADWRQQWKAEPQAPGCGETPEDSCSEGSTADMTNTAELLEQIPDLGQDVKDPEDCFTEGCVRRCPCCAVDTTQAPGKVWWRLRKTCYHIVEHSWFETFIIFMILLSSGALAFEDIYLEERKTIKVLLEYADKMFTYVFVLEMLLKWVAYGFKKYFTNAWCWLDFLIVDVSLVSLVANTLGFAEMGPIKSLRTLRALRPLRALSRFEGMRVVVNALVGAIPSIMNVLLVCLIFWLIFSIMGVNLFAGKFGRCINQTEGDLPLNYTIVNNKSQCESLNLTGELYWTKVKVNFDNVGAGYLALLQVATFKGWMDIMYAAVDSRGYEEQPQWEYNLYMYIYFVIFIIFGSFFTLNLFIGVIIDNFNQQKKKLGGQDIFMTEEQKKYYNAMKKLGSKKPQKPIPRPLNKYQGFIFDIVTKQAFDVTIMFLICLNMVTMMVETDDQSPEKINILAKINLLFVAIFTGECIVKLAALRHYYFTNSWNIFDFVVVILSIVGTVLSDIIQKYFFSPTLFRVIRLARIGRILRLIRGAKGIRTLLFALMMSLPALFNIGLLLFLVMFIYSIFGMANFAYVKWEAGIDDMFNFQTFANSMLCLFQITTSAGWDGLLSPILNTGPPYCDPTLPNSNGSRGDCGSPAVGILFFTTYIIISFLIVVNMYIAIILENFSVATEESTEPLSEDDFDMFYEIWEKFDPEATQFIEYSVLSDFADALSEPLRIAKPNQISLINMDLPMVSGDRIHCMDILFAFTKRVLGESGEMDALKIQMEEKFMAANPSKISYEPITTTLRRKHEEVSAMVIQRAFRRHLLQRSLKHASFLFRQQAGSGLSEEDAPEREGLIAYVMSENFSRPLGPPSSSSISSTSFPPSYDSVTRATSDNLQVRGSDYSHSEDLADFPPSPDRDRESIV
# T11 sequence (Q15858 whole entry): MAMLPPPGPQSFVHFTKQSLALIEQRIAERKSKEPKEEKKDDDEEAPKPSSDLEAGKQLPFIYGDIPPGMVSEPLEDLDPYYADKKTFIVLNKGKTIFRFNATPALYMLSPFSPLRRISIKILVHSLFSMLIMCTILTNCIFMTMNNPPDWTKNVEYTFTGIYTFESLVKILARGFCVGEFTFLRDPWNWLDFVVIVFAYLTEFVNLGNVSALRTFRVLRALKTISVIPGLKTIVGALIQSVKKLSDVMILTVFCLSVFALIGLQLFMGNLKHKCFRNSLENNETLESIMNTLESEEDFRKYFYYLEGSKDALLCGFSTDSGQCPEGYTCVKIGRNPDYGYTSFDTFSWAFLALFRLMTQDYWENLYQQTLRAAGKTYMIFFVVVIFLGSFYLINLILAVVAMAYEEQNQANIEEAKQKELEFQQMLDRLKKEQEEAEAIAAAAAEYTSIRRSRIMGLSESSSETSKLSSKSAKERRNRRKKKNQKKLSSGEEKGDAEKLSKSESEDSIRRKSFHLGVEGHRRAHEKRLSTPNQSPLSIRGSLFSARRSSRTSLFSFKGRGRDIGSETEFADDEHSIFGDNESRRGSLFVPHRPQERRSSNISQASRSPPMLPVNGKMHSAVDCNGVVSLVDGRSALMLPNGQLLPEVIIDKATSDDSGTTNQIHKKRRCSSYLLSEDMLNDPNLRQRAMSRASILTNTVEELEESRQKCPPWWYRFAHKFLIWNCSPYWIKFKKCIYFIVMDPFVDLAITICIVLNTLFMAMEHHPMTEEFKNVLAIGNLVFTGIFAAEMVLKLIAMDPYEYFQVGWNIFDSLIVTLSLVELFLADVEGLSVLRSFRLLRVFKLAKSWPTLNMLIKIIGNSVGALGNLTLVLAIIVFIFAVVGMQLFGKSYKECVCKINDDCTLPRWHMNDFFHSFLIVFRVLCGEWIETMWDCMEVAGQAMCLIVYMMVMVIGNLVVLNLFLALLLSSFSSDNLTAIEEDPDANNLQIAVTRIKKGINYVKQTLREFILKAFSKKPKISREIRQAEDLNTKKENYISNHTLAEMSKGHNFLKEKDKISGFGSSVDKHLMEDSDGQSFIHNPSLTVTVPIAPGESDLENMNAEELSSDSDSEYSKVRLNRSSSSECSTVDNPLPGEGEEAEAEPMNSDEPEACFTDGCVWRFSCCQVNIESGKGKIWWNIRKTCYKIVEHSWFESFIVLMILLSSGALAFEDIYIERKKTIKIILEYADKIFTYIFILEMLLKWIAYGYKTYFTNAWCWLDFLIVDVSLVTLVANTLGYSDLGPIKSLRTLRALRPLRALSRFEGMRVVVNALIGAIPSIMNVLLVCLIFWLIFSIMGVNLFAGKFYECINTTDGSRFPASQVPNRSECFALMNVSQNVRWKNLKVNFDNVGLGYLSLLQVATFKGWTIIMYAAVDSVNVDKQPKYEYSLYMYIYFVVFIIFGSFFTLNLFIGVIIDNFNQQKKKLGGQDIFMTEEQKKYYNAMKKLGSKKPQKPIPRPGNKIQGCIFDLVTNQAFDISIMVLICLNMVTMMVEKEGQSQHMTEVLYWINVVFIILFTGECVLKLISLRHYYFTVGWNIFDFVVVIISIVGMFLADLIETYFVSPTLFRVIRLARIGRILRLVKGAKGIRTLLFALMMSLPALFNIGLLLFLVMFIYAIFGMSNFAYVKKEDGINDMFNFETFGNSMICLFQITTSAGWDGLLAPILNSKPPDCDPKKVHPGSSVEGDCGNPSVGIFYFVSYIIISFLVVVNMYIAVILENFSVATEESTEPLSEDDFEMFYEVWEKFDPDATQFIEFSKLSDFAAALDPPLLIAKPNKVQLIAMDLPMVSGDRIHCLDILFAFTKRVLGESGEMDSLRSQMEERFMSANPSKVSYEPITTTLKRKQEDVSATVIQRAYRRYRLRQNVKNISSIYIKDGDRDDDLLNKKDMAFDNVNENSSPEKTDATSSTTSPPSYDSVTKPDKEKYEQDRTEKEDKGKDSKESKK
# T14 sequence (O75762 whole entry): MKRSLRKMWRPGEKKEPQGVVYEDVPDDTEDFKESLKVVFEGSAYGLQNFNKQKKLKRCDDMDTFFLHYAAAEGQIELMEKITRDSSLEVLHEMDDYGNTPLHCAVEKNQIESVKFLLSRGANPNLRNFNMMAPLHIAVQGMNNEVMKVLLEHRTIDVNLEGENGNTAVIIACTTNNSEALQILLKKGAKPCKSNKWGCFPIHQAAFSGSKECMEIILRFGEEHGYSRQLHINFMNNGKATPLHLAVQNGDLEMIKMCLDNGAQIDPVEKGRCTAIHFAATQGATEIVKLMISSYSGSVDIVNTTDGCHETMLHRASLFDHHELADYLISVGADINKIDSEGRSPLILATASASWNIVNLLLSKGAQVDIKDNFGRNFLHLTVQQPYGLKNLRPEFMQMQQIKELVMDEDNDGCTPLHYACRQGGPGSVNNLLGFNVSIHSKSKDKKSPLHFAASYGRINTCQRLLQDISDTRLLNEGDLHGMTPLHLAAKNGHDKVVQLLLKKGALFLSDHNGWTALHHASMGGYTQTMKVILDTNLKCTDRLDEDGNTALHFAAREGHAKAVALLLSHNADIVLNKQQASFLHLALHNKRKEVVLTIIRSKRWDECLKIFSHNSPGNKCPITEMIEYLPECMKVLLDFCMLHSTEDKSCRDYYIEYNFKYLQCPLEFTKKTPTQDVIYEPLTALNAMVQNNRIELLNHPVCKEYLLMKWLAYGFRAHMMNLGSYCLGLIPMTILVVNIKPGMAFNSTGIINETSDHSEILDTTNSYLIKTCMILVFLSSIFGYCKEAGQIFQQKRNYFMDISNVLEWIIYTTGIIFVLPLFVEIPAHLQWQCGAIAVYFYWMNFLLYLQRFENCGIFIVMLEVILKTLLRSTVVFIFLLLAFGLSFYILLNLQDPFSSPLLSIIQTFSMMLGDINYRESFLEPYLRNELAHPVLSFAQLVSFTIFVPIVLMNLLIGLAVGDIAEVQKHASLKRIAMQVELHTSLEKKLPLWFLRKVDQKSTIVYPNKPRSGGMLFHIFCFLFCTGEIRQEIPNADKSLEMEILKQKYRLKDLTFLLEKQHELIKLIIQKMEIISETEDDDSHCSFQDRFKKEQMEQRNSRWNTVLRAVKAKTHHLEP
substance,measurement,setting,value
23 (GSCIGEGVPCDENDPRCCFGLVCLKPTLHGIWYKSYYCYKK) [compound 23],Activity of 5HT3a with peptide (percentage of the reference compound),5HT3a,101%
same,"Activity of 5HT3a with peptide, expressed as a percentage of the reference compound",5HT3a,74%
same,"Activity of a3b4 with peptide, expressed as a percentage of the reference compound",α3β4; peptide at 0.2 μM,94%
same,Activity of a3b4 with peptide (percentage of the reference compound),α3β4; peptide at 20 μM,93%
same,"Activity of a4b2 with peptide, expressed as a percentage of the reference compound",α4β2; peptide at 0.2 μM,87%
same,Activity of a4b2 with peptide (percentage of the reference compound),α4β2; peptide at 20 μM,79%
same,"Activity of Cav2.1 with peptide, expressed as a percentage of the reference compound",Cav2.1; peptide at 0.2 μM,95%
same,Activity of Cav2.1 with peptide (percentage of the reference compound),Cav2.1; peptide at 20 μM,102%
same,"Activity of Cav2.2 with peptide, expressed as a percentage of the reference compound",Cav2.2; peptide at 0.2 μM,110%
same,Activity of Cav2.2 with peptide (percentage of the reference compound),Cav2.2; peptide at 20 μM,95%
same,"Activity of Kv2.1 with peptide, expressed as a percentage of the reference compound",Kv2.1; peptide at 0.2 μM,93%
same,Activity of Kv2.1 with peptide (percentage of the reference compound),Kv2.1; peptide at 20 μM,103%
same,"Activity of GABA with peptide, expressed as a percentage of the reference compound",GABA; peptide at 0.2 μM,100%
same,Activity of GABA with peptide (percentage of the reference compound),GABA; peptide at 20 μM,103%
same,"Activity of Nav1.5 with peptide, expressed as a percentage of the reference compound",Nav1.5; [1],85%
same,"Activity of Nav1.5 with peptide, expressed as a percentage of the reference compound",Nav1.5; [2],87%
same,Activity of Nav1.5 with peptide (percentage of the reference compound),Nav1.5; [1],85%
same,Activity of Nav1.5 with peptide (percentage of the reference compound),Nav1.5; [2],83%
same,"Activity of hERG with peptide, expressed as a percentage of the reference compound",hERG; peptide at 0.2 μM,92%
same,Activity of hERG with peptide (percentage of the reference compound),hERG; peptide at 20 μM,78%
same,"Activity of Kir2.1 with peptide, expressed as a percentage of the reference compound",Kir2.1; peptide at 0.2 μM,105%
same,Activity of Kir2.1 with peptide (percentage of the reference compound),Kir2.1; peptide at 20 μM,82%
same,"Activity of Kv1.1 with peptide, expressed as a percentage of the reference compound",Kv1.1; peptide at 0.2 μM,95%
same,Activity of Kv1.1 with peptide (percentage of the reference compound),Kv1.1; peptide at 20 μM,102%
same,"Activity of Kv1.2 with peptide, expressed as a percentage of the reference compound",Kv1.2; peptide at 0.2 μM,83%
same,Activity of Kv1.2 with peptide (percentage of the reference compound),Kv1.2; peptide at 20 μM,106%
same,"Activity of Kv1.3 with peptide, expressed as a percentage of the reference compound",Kv1.3; peptide at 0.2 μM,81%
same,Activity of Kv1.3 with peptide (percentage of the reference compound),Kv1.3; peptide at 20 μM,77%
same,"Activity of Nav1.7 with peptide, expressed as a percentage of the reference compound",Nav1.7; [3],89%
same,"Activity of Nav1.7 with peptide, expressed as a percentage of the reference compound",Nav1.7; [4],93%
same,Activity of Nav1.7 with peptide (percentage of the reference compound),Nav1.7; [3],65%
same,Activity of Nav1.7 with peptide (percentage of the reference compound),Nav1.7; [4],63%
same,"Activity of NR2A with peptide, expressed as a percentage of the reference compound",NR2A; peptide at 0.2 μM,88%
same,Activity of NR2A with peptide (percentage of the reference compound),NR2A; peptide at 20 μM,89%
same,"Activity of NR2B with peptide, expressed as a percentage of the reference compound",NR2B; peptide at 0.2 μM,95%
same,Activity of NR2B with peptide (percentage of the reference compound),NR2B; peptide at 20 μM,82%
same,"Activity of TRPA1 with peptide, expressed as a percentage of the reference compound",TRPA1; peptide at 0.2 μM,126%
same,Activity of TRPA1 with peptide (percentage of the reference compound),TRPA1; peptide at 20 μM,83%
same,"Activity of TRPV1 with peptide, expressed as a percentage of the reference compound",TRPV1; peptide at 0.2 μM,117%
same,Activity of TRPV1 with peptide (percentage of the reference compound),TRPV1; peptide at 20 μM,87%
